{
  "source": "patent US20220089784A1",
  "test_in_all_cases": "yeast scFv FACS",
  "key": {"[1]": {"molecular_target": "BoNT/B3 (Clostridium botulinum)"}, "[2]": {"molecular_target": "BoNT/B2 (Clostridium botulinum)"}, "[3]": {"molecular_target": "BoNT/B4 (Clostridium botulinum)"}, "[4]": {"molecular_target": "BoNT/C1 or other subtypes"}},
  "data": [
    {"binder": "18A6 scFv (scFv) scFv: EVQLQQSGPELVKPGASVKISCKASGYTFTDNYINWVKQRPGQGLEWIGWIYPGSGNTKYNEKFKGKATLTVDTSSNTAYMQLTGLASDDSAVYFCARVNFYVSWDYWGQGTSVTVSSVDLKSGGSTSGSGKPGSGEGSSGSAREIVLTQSPAIMSASPGEKVTMTCSASSSISYMHWFQQKPGMSPKRRIFDTSKLASGVPARFSGSGSGTSYSLTISSMEAEDAGTYYCHQRSSYPFTFGGGTKLELK", "values": [
      {"measurement": "Kd", "setting": "[1]", "value": 27.9, "unit": "nM"},
      {"measurement": "Kd", "setting": "[2]", "value": 32.4, "unit": "nM"},
      {"measurement": "Kd", "setting": "[3]", "value": 30.6, "unit": "nM"}
    ]},
    {"binder": "8DC3 scFv (scFv, V domains shown) VH: QVQLVQSGGGLVKPGGSLRLSCAASGFTFSSHSMNWVRQAPGKGLEWVSSISSSSSYIYYADSVKGRFTISRDNSKNSLYLQLNSLRAEDTAVYYCARGDHDFRSGYYGMDVWGQGTMVTVSS VL: AELTQDPAVSVALGQTVRITCQGDSLRNYYASWYQQKPGQAPVLVIYGKNIRPSGIPDRFSGSSSGNTASLTITGAQAEDEADYYCNSRDSNGNHYVFGTGTKVTVL", "values": [
      {"measurement": "Kd", "setting": "[4]", "value": "> 20", "unit": "nM"}
    ]},
    {"binder": "26B2 scFv (scFv) scFv: DVQLQESGPELVKPGASVKISCKASGYTFADYYINWVKQSHGKSLEWIGDFNPNNGDHSYNQKFKDKATLTVDESSNTAYMELRSLTSEDSAVYYCTREFYYYFDVWGTGTSVTVSSVDLKSGGSTSGSGKPGSGEGSSGSARDIEMTQTPAIMSASPGEKVTMTCSASSSVSSRYLHWYQQKSGASPKLWIYGTSNLASGVPARFSGSGSGTSYSLTISNVEAEDAATYYCQQYHSDPLTFGAGTKLEIK", "values": [
      {"measurement": "Kd", "setting": "[2]", "value": 5.43, "unit": "nM"}
    ]},
    {"binder": "19A9 scFv (scFv) scFv: EVQLQQPGSELARPGASVKLSCKASGYTFTSYPITWVKQTTGQGLEWIGEIYPRSGNTYYNEKFKGKATLTADKSSSTAYMELRSLTSEDSAVYFCARDYYDYAGGGRGYWGQGTTLTVSSVDLKSGGSTSGSGKPGSGEGSSGSARDIVLTQSPAIMSASPGGKITITCSASSSVSYMHWFQQKPGTSPKLWIYSTSNLASGVPARFSGSGSGTSYSLTISRMEAEDAATYYCQQRSSYPYTFGGGTKLEIK", "values": [
      {"measurement": "Kd", "setting": "[1]", "value": 1.18, "unit": "nM"},
      {"measurement": "Kd", "setting": "[2]", "value": 0.88, "unit": "nM"},
      {"measurement": "Kd", "setting": "[3]", "value": 1.04, "unit": "nM"}
    ]},
    {"binder": "18F2 scFv (scFv) scFv: EVQLQQSGPELMKPGASVKISCKASGYAFSRSWMNWVKQRPGKGLEWIGRIYPGDGDTNYNGKFKDKASLTADTSSSTAYMQLSSLTSEDSAVYFCTKSEGYYHNLGAYWGQGTTVTVSSVDLKSGGSTSGSGKPGSGEGSSGSAREIVLTQSPAIMSASPGQKVTITCSASSSVSYMHWYQQKSGTSPKRWIYDTSKLASGVPARFSGSGSGTSYSLIISSMEAEDAATYYCQQWRSNPPTFGGGTRLEIK", "values": [
      {"measurement": "Kd", "setting": "[2]", "value": 8.75, "unit": "nM"}
    ]},
    {"binder": "19B6 scFv (scFv) scFv: QVQLQQSGAELVKPGASVKISCKASGYTFTDNYINWVKQRPGQGLEWIGWIHPGSGNAKYNEKFRAKATLTVDTSSNTAYMQLSSLTSEDSAVYFCARVGFRVNFDYWGQGTTLTVSSVDLKSGGSTSGSGKPGSGEGSSGSARQIVLTQSPAIMSASPGEKVTMTCSASSSLSYVHWYQQKPGSSPKPWIYATSNLVSGVPARFSGSRSGTSYSLTISSMEAEDAATYYCQQWSSYPPTFGAGTKLEIK", "values": [
      {"measurement": "Kd", "setting": "[1]", "value": 866, "unit": "nM"},
      {"measurement": "Kd", "setting": "[2]", "value": 35.6, "unit": "nM"},
      {"measurement": "Kd", "setting": "[3]", "value": 43.5, "unit": "nM"}
    ]},
    {"binder": "16B3 scFv (scFv) scFv: EVQLQQSGPELVKPGASVKITCKASGYTFTDNNMDWVKQSHGKSLEWIGDINPNNGGSIYNQKFKGKASLTLDKSSSTAYMELRSLTSEDTAVYYCARWGYYGSLAYWGQGTLVTVSSVDLKSGGSTSGSGKPGSGEGSSGSARQNVLTQSPAIMSASPGEKVTMTCSASSSVSSRYLHWYQQKSGASPKLWIYGTSNLASGVPARFSGSGSGTSYSLTISSVEAEDAATYYCQQYHSDPLTFGGGTKLEIK", "values": [
      {"measurement": "Kd", "setting": "[1]", "value": 0.49, "unit": "nM"},
      {"measurement": "Kd", "setting": "[2]", "value": 0.75, "unit": "nM"},
      {"measurement": "Kd", "setting": "[3]", "value": 0.71, "unit": "nM"}
    ]},
    {"binder": "19D2 scFv (scFv) scFv: EVQLQQSGGELARPGSSVKLSCKASGYSFTGYSLTWVKQTPGQGLEWIGEIYPRSGNTYYNENFQGKATLTADESSSTAYMELRSLTSEDSAVYFCARDFYDYDGGGRGYWGQGTTLTVSSVDLKSGGSTSGSGKPGSGEGSSGSARDIVMTQTPAIMSASPGEKVTITCSASSSVSYMHWYQQKPGTSPKLWIYSTSNLASGVPARFSGSGSGTSYSLTISRMEAEDAATYYCQQRSSYPYTFGGGTKLEIK", "values": [
      {"measurement": "Kd", "setting": "[1]", "value": 1.47, "unit": "nM"},
      {"measurement": "Kd", "setting": "[2]", "value": 1.85, "unit": "nM"},
      {"measurement": "Kd", "setting": "[3]", "value": 1.84, "unit": "nM"}
    ]},
    {"binder": "18D10 scFv (scFv) scFv: QVQLKQSGIEVMKPGASVKLSCKASGYPFTAYWIEWVKQRPGHGLEWIGEFLPGGISTNFNEKFKGKATFSADTSSNSAYIQLNSLTTEDSAIYYCVLTGTGFDYWGQGTSVTVSSVDLKSGGSTSGSGKPGSGEGSSGSARENVLTQSPAIMSASPGEKVTMTCSASSSVSYMHWYQQKSGTSPKRWIYDTSKLASGVPARFSGSGSGTSYSLTISSMEAEDAATYYCQQWSSNPLTFGAGTKLELK", "values": [
      {"measurement": "Kd", "setting": "[1]", "value": 3.35, "unit": "nM"},
      {"measurement": "Kd", "setting": "[2]", "value": 5.57, "unit": "nM"},
      {"measurement": "Kd", "setting": "[3]", "value": 4.2, "unit": "nM"}
    ]},
    {"binder": "26G5 scFv (scFv) scFv: EVQLQESGPGLAKPSQTLSLTCSVTGYSITSDYWNWIRKFPGNKLEYMGYISYSGSTYYNPSLKSRISITRDTSKNQYYLQLNSVTTEDTATYYCARSFYDGYLYFDYWGQGTTVTVSSVDLKSGGSTSGSGKPGSGEGSSGSAREIVLTQSPAILSASPGEKVTMTCSASSSVSYMYWYQQKPGSSPRLLIYDTSNLASGVPARFSGSGSGTSYSLTISRVEAEDAATYYCQQWSSYPPTFGDGTRLEIK", "values": [
      {"measurement": "Kd", "setting": "[2]", "value": 30.5, "unit": "nM"}
    ]},
    {"binder": "18E5 scFv (scFv) scFv: EVQLQESGPELVKPGASVKISCKASGYTFTDHNMDWVKQSLGKSLEWIGDINPNNGGAVYNQNFKGKATLTVDKSSSTAYMELRSLTSEDTAVYYCARYGYYGYFDYWGQGTTLTVSSVDLKSGGSTSGSGKPGSGEGSSGSARQIVLTQSPAIMSASPGEKVTMTCRASSSVSSSYLHWYQQKPGSSPKLWIYSTSNLASGVPARFSGSGSGTSYSLTISSVEAEDAATYYCQQYDSSPSTFGAGTKLEIK", "values": [
      {"measurement": "Kd", "setting": "[1]", "value": 2.56, "unit": "nM"},
      {"measurement": "Kd", "setting": "[2]", "value": 2.66, "unit": "nM"},
      {"measurement": "Kd", "setting": "[3]", "value": 1.36, "unit": "nM"}
    ]},
    {"binder": "19D22 scFv (scFv) scFv: QIQLLQSGAELVRPGTSVKMSCKAAGYPFTSYWMGWVKQRPGHGLEWIGDIYPGGPYTNYNEKFKGKATLTADTSSSTAYMQFSSLTSEDSAIYYCALYGQVGSYAMDYWGQGTSVTVSSVDLKSGGSTSGSGKPGSGEGSSGSARQIVLTQSPAIMSASPGEKVTMTCSASSSVSYMYWYQQKPGSSPRLLIYDTSNLASGVPVRFSGSGSGTSYSLTISRMEAEDAATYYCQQWSSYPPITFGAGTKLEIK", "values": [
      {"measurement": "Kd", "setting": "[1]", "value": 3.77, "unit": "nM"},
      {"measurement": "Kd", "setting": "[2]", "value": 5, "unit": "nM"},
      {"measurement": "Kd", "setting": "[3]", "value": 5.24, "unit": "nM"}
    ]},
    {"binder": "26E6 scFv (scFv) scFv: EVQLQQSGPELVKPGASVKISCKASGYTFADYYINWVKQSHGKSLEWIGDFNPNNGDHSYNQKFKDKATLTVDESSNTAYMELRSLTSEDSAVYYCTREFYYYFDVWGTGTTVTVSSVDLKSGGSTSGSGKPGSGEGSSGSARDIVMSQSPLSLPVSLGDQAFISCRFSQSIVHSNGNTYLEWYLQKPGQSPKLLIYKVSNRFSGVPDRFSGSGSGTDFTLKISRVEAEDLGVYYCFQGSHVPYTFGGGTKLEIK", "values": [
      {"measurement": "Kd", "setting": "[2]", "value": 17.6, "unit": "nM"}
    ]},
    {"binder": "26D9 scFv (scFv) scFv: DVQLQESGAELVKPGASVKLSCKASGFTFTDYWMHWVKQRPGQGLEWIGMIHPYNGDNNYHEKFKSKATLTVDKSSSTAYMQLSSLTTEDSAVYYCVRNDYDPYYYALDYWGQGTSLTVSAVDLKSGGSTSGSGKPGSGEGSSGSARQIVLTQSPAIMSASPGEKVTMSCRASSSVSYVYWYQQKPGSSPKPWIYRTSNLASGVPVRFSGSGSGTSYSLTISRVEAEDAATYYCQQWSSYPPTFGGGTKLEIK", "values": [
      {"measurement": "Kd", "setting": "[2]", "value": 0.467, "unit": "nM"}
    ]}
  ]
}
